These results are taken from publication PMC10623405, “CsTT8 regulates anthocyanin accumulation in blood orange through alternative splicing transcription” (Horticulture Research, 2023).

Assay [1] deals with CsTT8 (TT8 with the full-length open reading frame) from blood orange 'Tarocco' (Citrus sinensis cv. 'Tarocco' (blood orange)).
Assay [2] deals with Δ15-TT8 (alternative splicing transcript of CsTT8 with the fourth exon skipped) (Citrus sinensis cv. 'Tarocco' (blood orange)).
For assay [3], the target named is CsTT8 (TT8 with the full-length open reading frame) from blood orange 'Tarocco' (Citrus sinensis cv. 'Tarocco' (blood …, UniProt A0A0U4H1K1 1-694)). The experiment in a line: cell-based or functional assay.
Chain of CsTT8 (TT8 with the full-length open reading frame) from blood orange 'Tarocco' (Citrus sinensis cv. 'Tarocco' (A0A0U4H1K1 entry or part of it): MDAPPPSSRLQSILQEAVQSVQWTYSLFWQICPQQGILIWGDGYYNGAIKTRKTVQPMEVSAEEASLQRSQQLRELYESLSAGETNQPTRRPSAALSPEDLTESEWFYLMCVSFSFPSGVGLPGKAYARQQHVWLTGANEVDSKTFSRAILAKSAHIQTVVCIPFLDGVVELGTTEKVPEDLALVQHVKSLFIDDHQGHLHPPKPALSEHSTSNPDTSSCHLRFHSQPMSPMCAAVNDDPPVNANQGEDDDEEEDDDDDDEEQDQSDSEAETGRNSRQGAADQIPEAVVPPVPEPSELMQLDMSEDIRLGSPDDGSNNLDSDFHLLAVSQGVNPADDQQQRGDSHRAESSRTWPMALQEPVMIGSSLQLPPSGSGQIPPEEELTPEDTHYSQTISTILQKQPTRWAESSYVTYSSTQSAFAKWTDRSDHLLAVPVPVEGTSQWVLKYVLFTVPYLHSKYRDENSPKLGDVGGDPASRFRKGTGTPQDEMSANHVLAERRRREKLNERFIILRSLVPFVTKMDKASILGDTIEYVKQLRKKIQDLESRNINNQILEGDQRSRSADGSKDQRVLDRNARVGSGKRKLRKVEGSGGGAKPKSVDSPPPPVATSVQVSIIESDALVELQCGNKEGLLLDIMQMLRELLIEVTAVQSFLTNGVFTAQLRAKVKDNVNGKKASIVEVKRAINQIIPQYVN

Chain of Δ15-TT8 (alternative splicing transcript of CsTT8 with the fourth exon skipped) (Citrus sinensis cv. 'Tarocco' (blood orange)) (main, as listed by the source mutant): as the sequence (A0A0U4H1K1 entry or part of it) above

Turning to “MYB5 (an MYB-type transcription factor) from sweet orange (natural protein)”, the dual luciferase reporter with the PH8 promoter in N. benthamiana leaves, effectors TT8 and MYB5, LUC/REN ratio in assay [1] worked out at 0.34 LUC/REN.

B1: RUBY1 (MYB-type transcription factor) from blood orange 'Tarocco' (natural protein, UniProt H6U1F1 1-262, looked up)
chain: MADSLGVRKGAWTGEEDDLLRKCIEKYGEAKWHQVPLRAGLHRCRKSCRLRWLNYLNPNIKRGEFAADEVDLILRLHKLLGNRWSLIVGRLPGRTANDVKNFWNTHLRKKVDKCCKNNKEMKAKAEKVEKINIIKPQPRTFAKNSQWLKGKGMTSNNLQLGDYNLGKQSTPSDHHHHHQQQQENETESVWWESFLFGDELDQQGISSSLSRPEEESTTANIFAEKSPVVTKVTENRVIEAGQSCPTDDFAFDAELWDLLNAK
As for B1, the dual luciferase reporter with the F3′H promoter in N. benthamiana leaves, effectors Δ15-TT8 and RUBY1, LUC/REN ratio in assay [2] came out at 0.042 LUC/REN. Besides, the “dual luciferase reporter with the F3′H promoter in N. benthamiana leaves, effectors TT8 and RUBY1, LUC/REN ratio” value in assay [3] is 0.099 LUC/REN.
